B1: human VEGFR-2/Fc (R&D Systems) (Fc fusion)
chain: ASVGLPSVSLDLPRLSIQKDILTIKANTTLQITCRGQRDLDWLWPNNQSGSEQRVEVTECSDGLFCKTLTIPKVIGNDTGAYKCFYRETDLASVIYVYVQDYRSPFIASVSDQHGVVYITENKNKTVVIPCLGSISNLNVSLCARYPEKRFVPDGNRISWDSKKGFTIPSYMISYAGMVFCEAKINDESYQSIMYIVVVVGYRIYDVVLSPSHGIELSVGEKLVLNCTARTELNVGIDFNWEYPSSKHQHKKLVNRDLKTQSGSEMKKFLSTLTIDGVTRSDQGLYTCAASSGLMTKKNSTFVRVHEKPFVAFGSGMESLVEATVGERVRIPAKYLGYPPPEIKWYKNGIPLESNHTIKAGHVLTIMEVSERDTGNYTVILTNPISKEKQSHVVSLVVYVPPQIGEKSLISPVDSYQYGTTQTLTCTVYAIPPPHHIHWYWQLEEECANEPSQAVSVTNPYPCEEWRSVEDFQGGNKIEVNKNQFALIEGKNKTVSTLVIQAANVSALYKCEAVNKVGRGERVISFHVTRGPEITLQPDMQPTEQESVSLWCTADRSTFENLTWYKLGPQPLPIHVGELPTPVCKNLDTLWKLNATMFSNSTNDILIMELKNASLQDQGDYVCLAQDRKTKKRHCVVRQLTVLERVAPTITGNLENQTTSIGESIEVSCTASGNPPPQIMWFKDNETLVEDSGIVLKDGNRNLTIRRVRKEDEGLYTCQACSVLGCAKVEAFFIIEGAQEKTNLE
notes: Bought protein; also called recombinant VEGFR2/Fc; not shown: Fc part; It is captured by goat anti-human IgG-Fc in the ELISA
B2: AB2 with linker 2 (SEQ ID NO:13) (antibody, V domains shown)
VH: QVQLVESGGGLIKPGGSLRLSCAASGFRFSAESMTWVRQAPGKGLEWVSAISSSGGSTYYADSVKGRFTISRDNSKNTVYLQMNSLRAEDTAVYYCVRSPKGCTHASCSWNSGSWGQGTLVTVSS
notes: Single domain antibody on a human VH scaffold, from a human VH library, expressed in E. coli; also called VR2-801-18
B3: biotin-V21H4 (SEQ ID NO:6) (VHH)
VHH: QVQLVESGGGLVQAGGSLRLSCAASGRAFSSYAMGWFRQAPGKERELVAAISWSDDSTYYANSVKGRFTISRDNAKSAVYLQMNSLKPEDTAVYYCAAHKSLQRPDEYTYWGQGTQVTVSS
modifications: biotinylated (site not stated)
notes: The biotinylation method is not described; also called V21H4 antibody
B4: AB1 with linker 2 (SEQ ID NO:7) (VHH)
VHH: B3 VHH
notes: Llama single domain antibody expressed in E. coli BL21(DE3); The monomer fraction from Superdex 75 was used for SPR; also called VR2-21
B5: AB3 with linker 2 (SEQ ID NO:21) (antibody, V domains shown)
VH: QVQLVESGGGLIKPGGSLRLSCAASGDMLSYDVMSWVRQAPGKGLEWVSAISSSGGSTYYADSVKGRFTISRDNSKNTVYLQMNSLRAEDTAVYYCVAAPWRCTHDNCSKTRASWGQGTMVTVSS
notes: Single domain antibody on a human VH scaffold, expressed in E. coli; also called VR2-801-45
B6: AB4 with linker 2 (SEQ ID NO:27) (VHH)
VHH: QVKLEESGGGLVQAGGSLRLSCAASGGTASSYAMGWFRQAPGKEREFVAAISRSGGNTDYVDSAKGRFTISRDDAKNTVSLQMNSLRLEDTAVYYCAARYAGTWPNDAGTVYWLPPNYNYWGQGTQVTVSS
notes: Llama single domain antibody expressed in E. coli; also called VR2-38

Key:
[1] = biological target: T1, AB4-(SEQ ID NO:27) DOS47 antibody-urease conjugate (jack bean (Canavalia ensiformis), UniProt P07374 1-840, cross-linked to the antibody; sites not stated; chemically cross-linked to urease; cross-linker and sites not stated for this conjugate); assay: ELISA on VEGFR2/Fc captured by anti-human IgG-Fc, conjugate detected with anti-urease [panel AB4-DOS47]
T1 construct: Antibody-enzyme conjugate; also called AB4-DOS47
T1 sequence (VHH, as listed by the source limits assumed, chain 1 of 2): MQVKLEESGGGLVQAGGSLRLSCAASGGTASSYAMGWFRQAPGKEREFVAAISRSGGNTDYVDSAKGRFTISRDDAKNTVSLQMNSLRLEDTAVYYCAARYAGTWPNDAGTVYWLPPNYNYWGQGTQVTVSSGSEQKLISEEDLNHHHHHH
T1 sequence (P07374 whole entry, chain 2 of 2): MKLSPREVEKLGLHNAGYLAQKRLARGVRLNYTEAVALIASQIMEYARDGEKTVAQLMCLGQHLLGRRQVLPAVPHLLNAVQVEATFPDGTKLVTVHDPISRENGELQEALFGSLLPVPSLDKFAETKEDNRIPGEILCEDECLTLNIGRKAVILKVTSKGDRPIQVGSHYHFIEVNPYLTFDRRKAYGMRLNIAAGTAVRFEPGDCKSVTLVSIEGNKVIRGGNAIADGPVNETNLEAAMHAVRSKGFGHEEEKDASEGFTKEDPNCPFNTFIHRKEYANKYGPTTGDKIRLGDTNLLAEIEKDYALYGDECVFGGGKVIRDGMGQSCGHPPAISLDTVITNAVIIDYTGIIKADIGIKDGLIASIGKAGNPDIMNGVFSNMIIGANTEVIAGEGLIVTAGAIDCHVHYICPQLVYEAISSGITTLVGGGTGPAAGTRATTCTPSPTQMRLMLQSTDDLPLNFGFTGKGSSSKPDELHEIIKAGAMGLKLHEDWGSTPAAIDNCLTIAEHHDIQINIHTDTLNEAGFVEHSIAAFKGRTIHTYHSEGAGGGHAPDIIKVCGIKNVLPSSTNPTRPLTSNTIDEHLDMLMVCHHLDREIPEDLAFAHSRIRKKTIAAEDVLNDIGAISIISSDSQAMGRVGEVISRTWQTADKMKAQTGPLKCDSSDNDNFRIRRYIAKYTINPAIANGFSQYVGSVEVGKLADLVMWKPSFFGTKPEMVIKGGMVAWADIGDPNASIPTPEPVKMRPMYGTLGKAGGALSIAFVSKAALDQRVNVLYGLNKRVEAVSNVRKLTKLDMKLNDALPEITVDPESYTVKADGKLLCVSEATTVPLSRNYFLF

[2] = biological target: T2, AB2-(SEQ ID NO:13) DOS47 antibody-urease conjugate (jack bean (Canavalia ensiformis), UniProt P07374 1-840, cross-linked to the antibody; sites not stated; chemically cross-linked to urease; cross-linker and sites not stated for this conjugate); assay: ELISA on VEGFR2/Fc captured by anti-human IgG-Fc, conjugate detected with anti-urease [panel AB2-DOS47]
T2 construct: Antibody-enzyme conjugate; also called AB2-DOS47
T2 sequence (VH, as listed by the source limits assumed, chain 1 of 2): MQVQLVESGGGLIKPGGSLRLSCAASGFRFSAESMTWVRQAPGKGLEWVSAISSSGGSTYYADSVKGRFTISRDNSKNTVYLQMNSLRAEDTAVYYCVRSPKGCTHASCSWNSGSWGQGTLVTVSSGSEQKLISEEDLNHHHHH
T2 sequence (P07374 whole entry, chain 2 of 2): as the sequence (P07374 whole entry, chain 2 of 2) above

[3] = biological target: T3, V21H4-DOS47 with 3.3 antibodies per urease (jack bean (Canavalia ensiformis), UniProt P07374 1-840, surface cysteines partly linked through BM(PEG)2 to C136 of V21H4; C136 linked through BM(PEG)2 to a urease cysteine); assay: ELISA on recombinant VEGFR2/Fc, absorbance at 405 nm, V21H4-DOS47 at different antibody/urease ratios
T3 construct: The conjugation ratio is an average value from SDS-PAGE
T3 sequence (VHH, as listed by the source limits assumed, chain 1 of 2): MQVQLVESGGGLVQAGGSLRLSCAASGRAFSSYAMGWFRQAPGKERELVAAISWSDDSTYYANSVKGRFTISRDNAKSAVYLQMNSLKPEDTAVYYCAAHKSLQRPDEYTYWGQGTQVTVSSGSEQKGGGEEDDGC
T3 sequence (P07374 whole entry, chain 2 of 2): as the sequence (P07374 whole entry, chain 2 of 2) above

[4] = biological target: T4, V21H4-DOS47 with 9.4 antibodies per urease (jack bean (Canavalia ensiformis), UniProt P07374 1-840, surface cysteines partly linked through BM(PEG)2 to C136 of V21H4; C136 linked through BM(PEG)2 to a urease cysteine); assay: as above
T4 construct: The conjugation ratio is an average value from SDS-PAGE
T4 sequence (P07374 whole entry, chain 2 of 2): as above

[5] = biological target: T5, V21H4-DOS47 with 1.4 antibodies per urease (jack bean (Canavalia ensiformis), UniProt P07374 1-840, surface cysteines partly linked through BM(PEG)2 to C136 of V21H4; C136 linked through BM(PEG)2 to a urease cysteine); assay: as above
T5 construct: The conjugation ratio is an average value from SDS-PAGE
T5 sequence (P07374 whole entry, chain 2 of 2): as above

[6] = biological target: T6, V21H4-DOS47 with 2.3 antibodies per urease (jack bean (Canavalia ensiformis), UniProt P07374 1-840, surface cysteines partly linked through BM(PEG)2 to C136 of V21H4; C136 linked through BM(PEG)2 to a urease cysteine); assay: as above
T6 construct: The conjugation ratio is an average value from SDS-PAGE
T6 sequence (P07374 whole entry, chain 2 of 2): as above

[7] = biological target: T7, AB1-(SEQ ID NO:9) DOS47 antibody-urease conjugate (jack bean (Canavalia ensiformis), UniProt P07374 1-840, cross-linked to the antibody; sites not stated; chemically cross-linked to urease; cross-linker and sites not stated for this conjugate); assay: ELISA on VEGFR2/Fc captured by anti-human IgG-Fc, conjugate detected with anti-urease [panel AB1-DOS47]
T7 construct: Antibody-enzyme conjugate; also called AB1-DOS47
T7 sequence (VHH, as listed by the source limits assumed, chain 1 of 2): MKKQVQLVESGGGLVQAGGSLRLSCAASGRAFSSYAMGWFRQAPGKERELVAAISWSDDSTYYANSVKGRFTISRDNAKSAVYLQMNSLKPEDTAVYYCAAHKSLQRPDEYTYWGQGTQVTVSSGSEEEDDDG
T7 sequence (P07374 whole entry, chain 2 of 2): as the sequence (P07374 whole entry, chain 2 of 2) above

[8] = biological target: V21H1-DOS47 (V21H1, SEQ ID NO:3, conjugated to jack bean urease through SM(PEG)2) (jack bean (Canavalia ensiformis), UniProt P07374 1-840, surface cysteines linked through SM(PEG)2 to the antibody; primary amines linked through SM(PEG)2 to urease cysteines; K66 in CDR2 was about 25% of the activated antibody); assay: ELISA on recombinant VEGFR2/Fc, absorbance at 405 nm
Chain of V21H1-DOS47 (V21H1, SEQ ID NO:3, conjugated to jack bean urease through SM(PEG)2) (VHH, as listed by the source limits assumed, chain 1 of 2): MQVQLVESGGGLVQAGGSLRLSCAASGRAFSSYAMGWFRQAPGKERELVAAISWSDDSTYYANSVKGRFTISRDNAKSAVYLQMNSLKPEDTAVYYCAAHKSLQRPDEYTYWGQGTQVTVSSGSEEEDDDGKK
Chain of V21H1-DOS47 (V21H1, SEQ ID NO:3, conjugated to jack bean urease through SM(PEG)2) (P07374 whole entry, chain 2 of 2): as the sequence (P07374 whole entry, chain 2 of 2) above

[9] = biological target: V21H4-DOS47 (V21H4, SEQ ID NO:6, conjugated to jack bean urease through BM(PEG)2) (jack bean (Canavalia ensiformis), UniProt P07374 1-840, C824, C663, C59 and C207 partly linked through BM(PEG)2 to C136 of V21H4; C136 linked through BM(PEG)2 to a urease cysteine); assay: as above
Chain of V21H4-DOS47 (V21H4, SEQ ID NO:6, conjugated to jack bean urease through BM(PEG)2) (P07374 whole entry, chain 2 of 2): as above

[10] = biological target: T8, mouse VEGFR-2/Fc (R&D Systems) (mouse, UniProt P35918 20-762); assay: SPR (Biacore 3000), immobilized mouse VEGFR-2/Fc
T8 construct: Bought protein; also called immobilized mouse VEGFR-2/Fc; not shown: Fc part, not described
T8 sequence (P35918 20-762 limits assumed): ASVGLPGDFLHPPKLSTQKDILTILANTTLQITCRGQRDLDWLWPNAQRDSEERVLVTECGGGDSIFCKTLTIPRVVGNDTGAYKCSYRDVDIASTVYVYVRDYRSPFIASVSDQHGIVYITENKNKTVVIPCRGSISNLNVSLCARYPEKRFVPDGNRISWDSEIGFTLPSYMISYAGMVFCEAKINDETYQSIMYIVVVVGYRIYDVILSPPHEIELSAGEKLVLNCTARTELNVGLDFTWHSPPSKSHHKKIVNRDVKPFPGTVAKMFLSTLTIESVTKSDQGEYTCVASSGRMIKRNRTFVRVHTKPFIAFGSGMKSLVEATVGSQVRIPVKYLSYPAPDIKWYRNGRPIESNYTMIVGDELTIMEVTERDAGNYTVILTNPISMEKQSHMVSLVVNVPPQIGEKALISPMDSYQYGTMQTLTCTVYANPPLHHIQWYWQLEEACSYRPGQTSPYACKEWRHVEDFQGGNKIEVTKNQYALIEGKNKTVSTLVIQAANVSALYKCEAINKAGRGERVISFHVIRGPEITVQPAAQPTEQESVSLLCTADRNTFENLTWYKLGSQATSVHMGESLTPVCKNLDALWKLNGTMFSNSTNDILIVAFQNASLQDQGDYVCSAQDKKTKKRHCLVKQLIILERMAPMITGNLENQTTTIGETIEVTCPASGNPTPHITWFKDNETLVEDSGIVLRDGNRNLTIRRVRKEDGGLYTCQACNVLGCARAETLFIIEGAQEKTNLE

[11] = biological target: B1; assay: SPR (Biacore 3000), immobilized human VEGFR-2/Fc
[12] = biological target: T9, human VEGFR2 (KDR) expressed on 293/KDR cells (human, UniProt P35968 20-1356); assay: flow cytometry on 293/KDR cells, S/N against biotin-isotype control
[13] = biological target: T9, human VEGFR2 (KDR) expressed on 293/KDR …; assay: flow cytometry on 293/KDR cells (FIG. 13B)
[14] = biological target: B1; assay: ELISA, captured recombinant VEGFR2/Fc, biotin-V21H4 (FIG. 13A); antibody alone, not conjugate
[15] = biological target: B1; assay: ELISA on recombinant VEGFR2/Fc, absorbance at 405 nm
[16] = biological target: B1; assay: SPR (Biacore 3000), immobilized human VEGFR-2/Fc; estimated from transformed data (FIG. 3)

B1
binding result [1]: binds | binding result [2]: binds | binding result [3]: binds | binding result [4]: binds | binding result [5]: binds | binding result [6]: binds | binding result [7]: binds | binding result [8]: binds | binding result [9]: binds

B2
binding result [10]: no binding (tested: 150˜200 nM) | Kd [11]: 500 nM | koff [11]: 0.02 s⁻¹ | kon [11]: 46000 M⁻¹ s⁻¹

B3
EC50 (read off the curve) [12]: ~2 nM | EC50 [13]: 1.6 nM | EC50 [14]: 1.8 nM | EC50 (read off the curve) [15]: ~2 nM

B4
binding result [10]: no binding (tested: 150˜200 nM) | Kd [16]: ~80 nM | koff [16]: < 0.01 s⁻¹ | kon [16]: ~60000 M⁻¹ s⁻¹

B5
binding result [10]: no binding (tested: 150˜200 nM) | Kd [11]: 900 nM | koff [11]: 0.045 s⁻¹ | kon [11]: 53000 M⁻¹ s⁻¹

B6
binding result [10]: no binding (tested: 150˜200 nM) | Kd [11]: 80 nM
